How the values were obtained:
CD38 (human) [1] = molecular target: CD38 (human) (UniProt P28907); test: flow cytometry on KMS-12 cells
CD38 (human) [2] = molecular target: CD38 (human) (UniProt P28907); test: flow cytometry on KMS-18 cells

MFI (CD38 (human) [1]): 62.4 MFI
MFI (CD38 (human) [2]): 44.5 MFI
Substance: Anti-CD38 HIT2 mAb (antibody)
